T1: APG09980-L16-nAPG07433.1 cytosine base editor (synthetic)
T1 chain: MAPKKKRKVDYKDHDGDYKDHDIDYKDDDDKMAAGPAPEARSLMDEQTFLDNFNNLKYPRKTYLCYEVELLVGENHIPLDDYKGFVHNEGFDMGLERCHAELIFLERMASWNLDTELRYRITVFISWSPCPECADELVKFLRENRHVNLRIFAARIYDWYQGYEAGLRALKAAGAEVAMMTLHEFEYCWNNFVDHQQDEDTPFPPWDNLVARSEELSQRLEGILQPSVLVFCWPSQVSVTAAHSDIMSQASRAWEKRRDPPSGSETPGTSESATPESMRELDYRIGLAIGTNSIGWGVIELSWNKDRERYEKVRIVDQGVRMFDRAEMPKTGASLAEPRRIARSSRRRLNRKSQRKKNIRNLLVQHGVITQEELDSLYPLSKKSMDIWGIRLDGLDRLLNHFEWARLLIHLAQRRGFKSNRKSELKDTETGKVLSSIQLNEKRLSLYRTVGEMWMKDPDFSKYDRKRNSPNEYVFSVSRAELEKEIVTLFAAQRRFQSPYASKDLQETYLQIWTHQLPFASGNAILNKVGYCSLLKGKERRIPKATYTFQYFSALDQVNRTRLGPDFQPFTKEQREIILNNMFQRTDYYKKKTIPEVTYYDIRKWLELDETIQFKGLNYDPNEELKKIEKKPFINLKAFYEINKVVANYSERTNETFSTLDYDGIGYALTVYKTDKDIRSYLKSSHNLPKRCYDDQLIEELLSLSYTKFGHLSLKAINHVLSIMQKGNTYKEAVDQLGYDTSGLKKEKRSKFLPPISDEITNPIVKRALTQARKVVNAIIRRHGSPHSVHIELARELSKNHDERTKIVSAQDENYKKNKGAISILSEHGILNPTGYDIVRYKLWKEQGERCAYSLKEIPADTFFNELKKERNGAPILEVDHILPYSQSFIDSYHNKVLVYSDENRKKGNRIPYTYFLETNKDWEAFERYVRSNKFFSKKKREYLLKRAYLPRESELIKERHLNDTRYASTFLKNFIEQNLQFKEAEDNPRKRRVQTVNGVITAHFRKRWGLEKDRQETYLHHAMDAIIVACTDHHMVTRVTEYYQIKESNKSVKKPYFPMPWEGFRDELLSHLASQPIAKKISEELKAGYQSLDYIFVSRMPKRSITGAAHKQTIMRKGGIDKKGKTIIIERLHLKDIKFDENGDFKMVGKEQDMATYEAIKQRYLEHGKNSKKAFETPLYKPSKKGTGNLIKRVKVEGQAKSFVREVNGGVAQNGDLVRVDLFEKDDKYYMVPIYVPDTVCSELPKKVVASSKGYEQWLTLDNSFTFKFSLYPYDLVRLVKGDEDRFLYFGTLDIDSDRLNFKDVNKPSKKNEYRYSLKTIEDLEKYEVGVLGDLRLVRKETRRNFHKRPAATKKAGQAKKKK


Target: T1, APG09980-L16-nAPG07433.1 cytosine base …
Assay: cell_activity; HEK293FT; PAM SEQ 152
Conditions: tags: SV40 NLS, 3xFLAG N-term; nucleoplasmin NLS C-term
Summary of the method: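 Editing read out by next-generation sequencing (MiSeq 2×250) of PCR amplicons spanning the target site, analysed for INDELs or % cytosine conversion per position (position 1 nearest PAM).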

| Binder | activity |
| --- | --- |
| SGN000169 sgRNA ; SGN000169 target (ssRNA ; dsDNA) RNA: CACAUCUCGAGCAAGACGUUGUCAUAGUUCCAUUAAAGCCAAAAGUGGCUUUGAUGUUUCUAUGAUAAGGGUUUCGACCCGUGGCGUCGGGGAUCGCCUGCCCAUUGAAAUGGGCUUCUCCCCAUUUAUU DNA 1: CACATCTCGAGCAAGACGTT DNA 2: AACGTCTTGCTCGAGATGTG | 24.8 % mutated reads |
| SGN000930 sgRNA ; SGN000930 target (ssRNA ; dsDNA) RNA: GAACAACUCAAAUGGAAAUGAAUAUGUCAUAGUUCCAUGAAAGCCAAAAGUGGCUUUGAUGUUUCUAUGAUAAGGGUUUCGGCCCGUGGCGUCGGGGAUCGCCUGCCCAUUCCGAUGGGCUUCUCCCCAUUUAUU DNA 1: GAACAACTCAAATGGAAATGAATAT DNA 2: ATATTCATTTCCATTTGAGTTGTTC | 25.2 % mutated reads |

— patent US20240301385, “DNA MODIFYING ENZYMES AND ACTIVE FRAGMENTS AND VARIANTS THEREOF AND METHODS OF USE” (LIFEEDIT THERAPEUTICS, INC., published 2024)
